Data taken from paper PMC6778059 (Nature cell biology, 2019).

T1: SNX5 PX domain (UniProt Q9Y5X3 25-172)
T1 sequence: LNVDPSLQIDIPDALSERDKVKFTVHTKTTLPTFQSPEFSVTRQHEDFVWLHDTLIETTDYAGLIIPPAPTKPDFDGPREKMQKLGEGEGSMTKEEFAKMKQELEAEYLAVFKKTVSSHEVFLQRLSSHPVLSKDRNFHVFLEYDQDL

T2: SNX6 PX domain (UniProt Q9UNH7 26-173)
T2 sequence: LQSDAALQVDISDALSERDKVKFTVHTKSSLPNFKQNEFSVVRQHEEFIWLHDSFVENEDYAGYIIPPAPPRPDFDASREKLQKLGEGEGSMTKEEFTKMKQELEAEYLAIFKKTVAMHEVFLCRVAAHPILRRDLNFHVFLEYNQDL


What was measured:
Assay in all cases: ITC
[1] = target: SNX32 PX domain
[2] = target: T1, SNX5 PX domain
[3] = target: T2, SNX6 PX domain

| Kd [2] | binding result [2] | Molecule | other results |
| --- | --- | --- | --- |
| – | – | CI-MPR peptide (residues 2347-2375) (from UniProt P11717 2347-2375) | Kd [1]: 12 µM |
| ~25 µM | – | SNVSYKYSKVNKEEETDENETEWLMEEIQ [CI-MPR peptide (residues 2347-2375)] | Kd [3]: 24 µM |
| – | binds | SNVSYKYSKVNKEEETDENETEWDMEEIQ [CI-MPR peptide L2370D] | – |
| – | binds | SNVSYKYSKVNKEEETDENETEWLDEEIQ [CI-MPR peptide M2371D] | – |
| 15 µM | – | REVSFYYSEENKLPEPEELDLEPENMES [IGF1R peptide (residues 1275-1302)] | – |
| – | binds | SNVSYKYSKVNKEEETDENETEAAAEEIQ [CI-MPR peptide WLM-AAA] | – |
| 26 µM | – | WDPVGYYYSDGSLKIVPGHARCQPG [SEMA4C peptide (residues 731-755)] | – |
